The values below come from patent US20110287023A1 (AstraZeneca / MedImmune, published 2011).

The target in assay [1] is T1, HMG2 coated on ELISA plates (Bos taurus (Bovine), UniProt P40673 2-209).
T1 construct: also called HMGB2; HMBG2
T1 sequence: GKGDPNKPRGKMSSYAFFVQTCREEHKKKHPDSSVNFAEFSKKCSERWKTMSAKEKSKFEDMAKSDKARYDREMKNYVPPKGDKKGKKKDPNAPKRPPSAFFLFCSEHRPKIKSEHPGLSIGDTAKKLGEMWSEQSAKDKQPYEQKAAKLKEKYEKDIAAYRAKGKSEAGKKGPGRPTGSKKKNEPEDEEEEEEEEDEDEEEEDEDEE
Description: direct ELISA, HMGB2 coated at 5 ug/mL, OD 490. The method, boiled down:
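Calf thymus HMGB1 or HMGB2 coated at 5 ug/mL in 10 mM PBS pH 7.2 overnight at 4 °C; anti-HMGB1 antibody added at 10 ug/mL final in PBS + 1% BSA, 1 h at room temperature. Detection with HRP anti-human kappa plus lambda (1:1000, 1 h), OPD substrate 20-30 min in the dark, H₂SO₄ stop, absorbance 490 nm.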
A general note: In an ELISA, binding on a coated surface is turned into a signal by an enzyme label.

The target in assay [2] is T2, HMG1 B Box peptide amino acids 91-169.
T2 construct: also called HMG1 peptide 91-169
T2 peptide: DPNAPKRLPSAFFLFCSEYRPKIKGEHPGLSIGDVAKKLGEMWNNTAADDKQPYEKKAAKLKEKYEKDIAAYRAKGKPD
Description: ELISA, HMG1 B Box peptide 91-169 coated at 10 ug/ml, antibody titrated, anti-human IgG-HRP, OD 450. How it is done:
The plate was then blocked with 4% milk powder dissolved in PBS at 37° C. for 1 hour. The blocking solution was removed and replaced with human anti-HMG1 antibodies at various concentrations (see FIGS. 5A-B). […] HRP activity was detected with Sureblue HRP substrate (KPL). Plates were read at 450 nm using a Kinetic Microplate Reader (Molecular Devices). […] After washing and blocking with 1% BSA in PBS, the biotinylated peptides were individually added into the avidin coated wells and incubated for 30 min at room temperature. The serial diluted antibody G4, S16 and S6 at the initial concentration at 10 μg/ml were then transferred into the wells followed by adding mouse anti human IgG-HRP conjugate (Pierce). Detection was accomplished by adding 50 μl of tetramethylbenzidine (TMB) substrate (KPL) and the absorbance was read at 450 nm.

Assay [3] deals with T3, released HMG1 from conditioned medium of necrotic 293H cells (human, UniProt P09429 1-215).
T3 construct: also called necrotic HMG1
T3 sequence (looked up): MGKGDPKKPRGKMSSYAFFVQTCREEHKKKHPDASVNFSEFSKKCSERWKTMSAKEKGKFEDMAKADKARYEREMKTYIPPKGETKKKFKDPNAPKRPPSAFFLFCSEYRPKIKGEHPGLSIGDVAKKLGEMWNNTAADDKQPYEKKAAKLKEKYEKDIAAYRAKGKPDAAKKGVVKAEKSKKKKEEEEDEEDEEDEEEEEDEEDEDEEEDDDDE
Description: sandwich ELISA: antibody titrated and captured on anti-human IgG Fc, released HMG1 in solution, mouse anti-HMGB1 detection, OD 450. The method, then:
(§1) Sandwich ELISA (soluble HMG1): Immunoplates (EIA/RIA plate, High binding, Costar) were coated with anti human IgG Fc at 10 μg/ml in PBS (pH 7.2) and incubated at 4° C. overnight. The coating reagent was removed and the plates were rinsed briefly with PBS. The plates were then blocked with 4% milk for 1 hour at 37° C. and rinsed with PBS. The anti-HMG1 antibodies were diluted in 4% milk. For serial dilutions, the antibodies were used at a starting concentration of 20 μg/ml. The diluted anti-HMG1 antibodies were then added into plate and incubated for 1 hr at 37° C. The plate was then washed 10 times with PBST (PBS/0.1% tween 20) and incubate with antigen (HMGB1, 2 μg/ml; or 0.7 μg/ml for native HMGB1) in 4% milk and incubated at 37° C. for 1 h. The plate was then wash 10 times and incubated with mouse anti-HMGB1, 1 μg/ml in 4% milk at 37° C. for 1 h. The plate was washed 10 times and incubated with anti-mouse IgG-HRP at 1:1000 at 37° C. for 1 h. The plate was then washed and developed. HRP activity was detected with Sureblue HRP substrate (KPL). Plates were read at 450 nm using a Kinetic Microplate Reader (Molecular Devices).

Assay [4] concerns the target T4, nuclear HMGB1 in fixed HUVEC cells (UniProt P09429 1-215, limits assumed).
T4 construct: whole, on cells; immunostaining
T4 sequence (looked up): T3 sequence (looked up)
Description: immunofluorescence on fixed HUVEC, anti-human IgG-FITC; paragraph 81 gives the lower panels as G4. How it is done:
Immunofluorescence: Intracytoplasmic (ic) HMGB1 was quantitated by direct immunofluorescence. HUVEC were harvested by trypsin-EDTA treatment and seeded on a glass coverslip. Once the cells are settled, they were stimulated with 0.2 μg/ml of LPS (Sigma) for 4 hours. The cells were fixed in 2% paraformaldehyde for 15 min and then permeabilized in 0.2% Triton X-100 for 2 min. Fixed and permeabilized cells were incubated with anti-HMGB1 antibodies at 1 μg/ml for 1 hour at room temperature. Cells were then washed to remove excess or nonspecifically bound primary antibody followed by incubation with anti human IgG conjugated with fluorescence (Pierce). The sections were mounted with fluoromount (Southern Associates, Birmingham, Ala.), and the images were processed with a Nikon microscope (Japan) and a SPOT imaging system (Diagnostic Instrument).

The target of assay [5] is T1, HMG2 coated on ELISA plates. Description: direct ELISA, HMGB2 coated at 5 ug/mL, antibody at 10 ug/mL, anti-human kappa/lambda-HRP, OD 490. The method, then: Binding to HMG1 vs. HMG2: Ultra high-binding ELISA plates (ThermoLab systems, #3855) were coated with either 5 ug/mL of Calf thymus HMGB1 or HMBG2 diluted in 10 mM Phosphate buffered saline (PBS), pH 7.2 and incubate overnight at 4 degrees. The plates were washed twice with Ca and Mg free PBS and 100 microliters of anti-HMGB1 antibody diluted in 10 mM PBS, pH 7.2+1% bovine serum albumin (BSA) to a final concentration of 10 ug/mL was added to each well and the plates were incubated 1 hour at room temperature. The wells were washed three times with 100 μl of PBS, pH 7.2. HRP labeled goat-anti-human IgG Kappa-chain (KPL, #14-10-10) and goat-anti-human IgG Lambda-chain (KPL, #14-10-11) were diluted in 10 mM PBS+1% BSA 1:1000 and 100 μl were added to each well and incubated for 1 hour at room temperature. The wells were then washed three times with 100 μl of PBS, pH 7.2. OPD substrate (Pierce chemical company, #34006) was prepared following the manufacturers instructions and 100 μl of prepared substrate was added to each well and the plates incubated at room temperature in the dark for 20-30 minutes. The reaction was stopped with the addition of 100 μl of 2M H₂SO₄, and the plates read on a plate reader at a wavelength of 490 nm.

Assay [6] addresses T5, recombinant HMG1 produced in E. coli as a calmodulin binding protein (CBP) fusion (human).
T5 construct: also called rHMG1; rHMGB1
Description: sandwich ELISA, captured antibody and soluble HMG1, OD 450. The method, then: as §1

B1: human anti-HMG1 antibody S6 (antibody, V domains shown)
VH: EVQLLESGGGLVQPGGSLRLSCAASGFTFSWYDMSWVRQAPGKGLEWVSRISPSGGYTMYADSVKGRFTISRDNSKNTLYLQMNSLRAEDTAVYYCARLEVGATSGGTAFDIWGQGTMVTVSS
VL: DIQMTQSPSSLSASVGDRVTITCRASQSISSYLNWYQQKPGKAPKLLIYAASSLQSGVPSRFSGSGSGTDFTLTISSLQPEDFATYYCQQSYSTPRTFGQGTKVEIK
notes: full length IgG1 made from a human Fab phage clone; two paragraphs print 'S4' for the PTA-6143 deposit; also called ATCC PTA-6143
On to B1, for which, in assay [1], the binding result is on record as “no binding (tested: 10 ug/mL (single concentration))”.

B2: human anti-HMG1 antibody G4 (antibody, IgG1, V domains shown)
VH: EVQLLESGGGLVQPGGSLRLSCAASGFTFSWYDMTWVRQAPGKGLEWVSSISPSGGYTKYADSVKGRFTISRDNSKNTLYLQMNSLRAEDTAVYYCTTEFYDYLDVWGKGTTVTVSS
VL: DIQMTQSPGTLSLSPGEGATLSCRASQSVSSTYLAWYQQKPGQAPRLLIYEASKRATGTPARFSGSGSGTDFTLSISSLEPEDFAVYYCQHRHNWPPQWTFGQGTKVEVK
notes: full length IgG1 made from a human Fab phage clone; also called ATCC PTA-6258
B2: the binding result in assay [1] is listed as “no binding (tested: 10 ug/mL (single concentration))”; in assay [2], “binds”; in assay [3] it was “binds”; in assay [4], “binds”.

B3: human anti-HMG1 antibody S16 (antibody, IgG1, V domains shown)
VH: EVQLLESGGGLVQPGGSLRLSCAASGFTFSWYSMLWVRQAPGKGLEWVSYISPSGGFTNYADSVKGRFTISRDNSKNTLYLQMNSLRAEDTAVYYCARWDYNSGWYYDHWGQGTLVTVSS
VL: DIQMTQSPDTLSLSPGERATLSCRASQSVNSRNLAWYQQKPGQAPRLLIYGASTRATGIPDRFSGSVSGTEFTLTISSLQPDDFATYYCQQYNSYFTFGQGTKLEIK
notes: full length IgG1 made from a human Fab phage clone; also called ATCC PTA-6259
B3: the binding result in assay [5] and in assay [2] was “binds” each time.

B4: human anti-HMG1 antibody E11 (antibody, IgG1, V domains shown)
VH: EVQLLESGGGLVQPGGSLRLSCAASGFTFSRYQMNWVRQAPGKGLEWVSSISPSGGHTHYADSVKGRFTISRDNSKNTLYLQMNSLRAEDTAVYYCAKDGRQGKISTVDHWGQGTLVTVSS
VL: DIQMTQSPGTLSLSPGERATLSCRASQSVRSNFLAWYQQKPGQAPRLLIYGASRRASGIPDRFSGSGFGADFTLSISRLEPEDFAVYYCQQYGSSPNTFGQGSRVEIK
notes: full length IgG1 made from a human Fab phage clone
What is called EC50 (read off the curve) is the concentration that produces a half-maximal response. B4: the “EC50 (read off the curve)” value in assay [6] was approximately 0.4 µg/mL. Besides, in assay [5], the binding result is listed as “binds”.
